This note sets out measurements from patent publication US11008402 (dated 2021).

Several values for one entry are separate records, joined by “and”; a condition that tells them apart may be missing. Equal entries are not always repeated. Where two headings read alike, the source gives them in different places.

One assay addresses T1, HER3 359-643-Fc (human).
T1 chain: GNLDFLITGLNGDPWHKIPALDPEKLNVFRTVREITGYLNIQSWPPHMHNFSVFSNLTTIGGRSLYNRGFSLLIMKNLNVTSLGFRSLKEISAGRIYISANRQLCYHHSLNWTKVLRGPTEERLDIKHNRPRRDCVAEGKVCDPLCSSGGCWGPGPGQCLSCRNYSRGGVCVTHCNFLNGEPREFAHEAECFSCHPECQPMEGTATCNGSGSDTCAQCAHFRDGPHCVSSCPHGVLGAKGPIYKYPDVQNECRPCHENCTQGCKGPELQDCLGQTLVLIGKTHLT
The experiment in a line: ELISA.

For assay [1], the target named is HER3-Fc ECD (human). The experiment in a line: ELISA.
The target in assay [2] is HER3-His ECD (human). Nature of the assay: ELISA. In general terms: ELISA stands for enzyme-linked immunosorbent assay.
The target in the next assay is T2, HER3 329-550-Fc (human).
T2 chain: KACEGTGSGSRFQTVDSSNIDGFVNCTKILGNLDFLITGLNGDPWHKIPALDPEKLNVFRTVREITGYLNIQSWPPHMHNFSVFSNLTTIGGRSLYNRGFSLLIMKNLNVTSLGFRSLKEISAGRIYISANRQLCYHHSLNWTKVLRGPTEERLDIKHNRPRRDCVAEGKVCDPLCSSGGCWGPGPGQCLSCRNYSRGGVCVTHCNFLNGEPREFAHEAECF
Nature of the assay: ELISA.

The target in a further assay is HER3 20-531-Fc (human). Nature of the assay: ELISA.
The target in assay [3] is HER3-His ECD (human). Nature of the assay: ELISA. This is another data set of the same source.
Assay [4] deals with HER3-His ECD (human). Nature of the assay: ELISA. The source holds these as a separate data set.
The target in another assay is T3, HER3 458-643-Fc (human).
T3 chain: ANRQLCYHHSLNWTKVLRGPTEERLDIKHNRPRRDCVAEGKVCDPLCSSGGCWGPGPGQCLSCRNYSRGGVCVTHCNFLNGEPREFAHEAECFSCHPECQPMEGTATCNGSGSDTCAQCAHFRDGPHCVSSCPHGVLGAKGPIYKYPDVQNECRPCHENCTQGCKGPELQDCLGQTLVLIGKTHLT
Nature of the assay: ELISA.

In another assay the target is T4, HER3 359-587-Fc (human).
T4 chain: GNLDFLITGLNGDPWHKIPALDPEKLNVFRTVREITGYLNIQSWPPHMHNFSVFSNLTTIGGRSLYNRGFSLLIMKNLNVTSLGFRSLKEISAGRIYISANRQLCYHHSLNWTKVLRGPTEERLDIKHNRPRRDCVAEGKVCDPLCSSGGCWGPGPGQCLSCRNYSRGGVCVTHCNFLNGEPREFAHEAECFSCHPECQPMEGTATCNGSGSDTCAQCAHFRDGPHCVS
Nature of the assay: ELISA.

In a further assay the target is T5, HER3 DIV-Fc (human).
T5 chain: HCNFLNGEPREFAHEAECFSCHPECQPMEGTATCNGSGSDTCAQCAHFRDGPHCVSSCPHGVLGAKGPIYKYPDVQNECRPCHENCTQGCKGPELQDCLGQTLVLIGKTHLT
Nature of the assay: ELISA.

The next assay addresses T6, HER3 20-358-Fc (human).
T6 chain: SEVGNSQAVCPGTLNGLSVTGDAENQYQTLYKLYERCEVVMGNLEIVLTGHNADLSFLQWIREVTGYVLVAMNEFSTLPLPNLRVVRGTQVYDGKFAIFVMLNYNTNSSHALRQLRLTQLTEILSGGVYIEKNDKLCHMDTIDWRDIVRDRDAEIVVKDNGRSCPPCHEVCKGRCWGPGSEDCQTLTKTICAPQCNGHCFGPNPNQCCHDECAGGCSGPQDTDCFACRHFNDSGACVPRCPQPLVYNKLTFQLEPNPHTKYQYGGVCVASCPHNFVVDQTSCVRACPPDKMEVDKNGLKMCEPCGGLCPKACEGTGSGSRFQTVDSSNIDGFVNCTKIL
The experiment in a line: ELISA.

A further assay has as its target HER3 20-550-Fc (human). The experiment in a line: ELISA.
Another assay addresses T7, HER3 395-643-Fc (human).
T7 chain: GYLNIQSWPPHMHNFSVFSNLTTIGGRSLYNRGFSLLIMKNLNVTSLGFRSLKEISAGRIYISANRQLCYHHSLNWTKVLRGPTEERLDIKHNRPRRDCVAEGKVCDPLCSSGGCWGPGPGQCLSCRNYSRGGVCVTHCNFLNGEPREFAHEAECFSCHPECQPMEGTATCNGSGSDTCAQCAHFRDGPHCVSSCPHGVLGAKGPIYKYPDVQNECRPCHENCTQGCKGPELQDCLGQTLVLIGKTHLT
The experiment in a line: ELISA.

In assay [5] the target is HER3 (cell surface) (human). The experiment in a line: FACS, FaDu.
In assay [6] the target is HER3 (cell surface) (human). Nature of the assay: FACS, FaDu. This is another data set of the same source. (In general: In flow cytometry, cells or beads pass a laser one at a time.)
For assay [7], the target named is HER3 (cell surface) (human). Nature of the assay: FACS, FaDu. This is another data set of the same source.
Assay [8] deals with HER3 (cell surface) (human). Nature of the assay: FACS, MCF-7.
The target of assay [9] is HER3 (cell surface) (human). The experiment in a line: FACS, SKBR-3.
Assay [10] deals with HER3-His ECD (human). Nature of the assay: other, QCM Attana 25C.
Assay [11] concerns the target HER3-Fc ECD (human). Nature of the assay: other, QCM Attana bivalent.

B1: IgG 3-43 (antibody, V domains shown)
VH: QVQLQQSGPGLVKPSQTLSLTCAISGDSVSSNRAAWNWIRQSPSRGLEWLGRTYYRSKWYNDYAQSLKSRITINPDTPKNQFSLQLNSVTPEDTAVYYCARDGQLGLDALDIWGQGTMVTVSS
VL: QAGLTQPPAVSVAPGQTASITCGRDNIGSRSVHWYQQKPGQAPVLVVYDDSDRPAGIPERFSGSNYENTATLTISRVEAGDEADYYCQVWGITSDHVVFGGGTKLTVLG
Turning to B1, the binding result with HER3 359-643-Fc, in the assay with HER3 329-550-Fc, with HER3 20-531-Fc, with HER3 458-643-Fc, in the assay with HER3 359-587-Fc and with HER3 DIV-Fc was “no binding” throughout. For the same molecule, the binding result with HER3 20-358-Fc, with HER3 20-550-Fc and with HER3 395-643-Fc was “no binding” in each case. The EC50 with HER3-Fc ECD [1] is 0.27 nM and 0.4 nM; in the assay with HER3-His ECD [2], 0.33 nM; in the assay with HER3-His ECD [3], 0.33 nM and 0.54 nM; with HER3-His ECD [4], 0.23 nM; with HER3 (cell surface) [5] it was 0.3 nM; in the assay with HER3 (cell surface) [6], 0.006 nM. Also, the EC50 with HER3 (cell surface) [7] turned out to be 0.003 nM; with HER3 (cell surface) [8], 0.021 nM; in the assay with HER3 (cell surface) [9] it was 0.022 nM. Further, the results for the Kd with HER3-His ECD [10] and in the assay with HER3-Fc ECD [11] were 11.2 nM and 0.22 nM, respectively.

The EC50 is the midpoint of the concentration-response curve.
